Legend:
[1] = molecular target: T1, human TIM-3 extracellular domain protein with hFc tag (hTIM-3-hFc) (human, UniProt Q8TDQ0 22-200); test: ELISA, coated human TIM-3 ECD protein, 0.0067 nM antibody
T1 construct: not shown: human IgG Fc fragment (hFc) of the pCpC vector
T1 sequence: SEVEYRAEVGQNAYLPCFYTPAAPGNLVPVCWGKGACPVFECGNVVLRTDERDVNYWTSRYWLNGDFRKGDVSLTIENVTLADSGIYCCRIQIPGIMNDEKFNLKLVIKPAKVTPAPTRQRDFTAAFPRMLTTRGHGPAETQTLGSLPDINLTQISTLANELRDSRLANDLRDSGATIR

[2] = molecular target: T2, monkey TIM-3 extracellular domain protein with hFc tag (cTIM-3-hFc) (monkey); test: ELISA, coated monkey TIM-3 ECD protein, 0.0067 nM antibody
T2 construct: not shown: human IgG Fc fragment (hFc) of the pCpC vector
T2 chain: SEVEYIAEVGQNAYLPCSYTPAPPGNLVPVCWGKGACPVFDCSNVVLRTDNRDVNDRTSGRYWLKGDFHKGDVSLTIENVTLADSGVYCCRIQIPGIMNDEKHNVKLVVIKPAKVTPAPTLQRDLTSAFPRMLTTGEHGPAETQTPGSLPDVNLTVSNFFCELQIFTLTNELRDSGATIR

[3] = molecular target: T3, monkey TIM-3 on CHOK1 stable cell line (CHOK1-cTIM-3) (monkey); test: FACS, CHOK1-cTIM-3 cells, 40 nM antibody
T3 chain: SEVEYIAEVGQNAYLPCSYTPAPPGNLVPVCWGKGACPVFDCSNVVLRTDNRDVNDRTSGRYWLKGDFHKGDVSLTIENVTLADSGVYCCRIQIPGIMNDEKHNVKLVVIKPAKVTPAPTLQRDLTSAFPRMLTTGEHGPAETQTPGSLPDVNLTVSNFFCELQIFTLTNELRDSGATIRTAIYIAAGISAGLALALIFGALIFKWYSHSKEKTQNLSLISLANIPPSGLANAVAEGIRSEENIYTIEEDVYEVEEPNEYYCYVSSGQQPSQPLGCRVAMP

[4] = molecular target: T1, human TIM-3 extracellular domain …; test: ELISA, coated human TIM-3 ECD protein, 66.667 nM antibody
[5] = molecular target: T2, monkey TIM-3 extracellular domain …; test: ELISA, coated monkey TIM-3 ECD protein, 0.0001 nM antibody
[6] = molecular target: T1, human TIM-3 extracellular domain …; test: FACS, blocking of hTIM-3-hFc binding to phosphatidylserine on apoptotic Jurkat cells, 2.469 nM antibody
Protocol: Jurkat cells were treated with 1 μM staurosporine at 37° C. for 2 hours to induce apoptosis. The presence of phosphatidylserine was detected by Annexin V-FITC cell apoptosis detection kit. […] The cells were washed 1-2 times with PBS buffer, and after cell counting, the cells were diluted to 1-2×10⁶ cells per milliliter with binding buffer, and added to a 96-well FACS reaction plate at 100 microliters per well. The antibody sample to be tested and 2 μg/ml hTIM-3-hFc protein were prepared with binding buffer, and mixed equally in volume. The mixture was incubated at room temperature for 30 minutes, then the FACS reaction plate incubated with apoptotic cells was centrifuged to discard the supernatant, and the above mixture was added to the apoptotic cells at 100 microliters per well and incubated at room temperature for 1 hour. The plate was washed twice with the binding buffer by centrifugation, added with 100 microliters of fluorescent (Alexa 488)-labeled secondary antibodies per well, and incubated for half an hour. The plate was washed 2-3 times with the binding buffer by centrifugation, added with 100 microliters of PBS per well to suspend cells, and detected using FACS (FACS Calibur, BD) and the results were analyzed. The results are shown in Table 15 and FIG. 15, wherein the IgG control is human IgG, and the data in the table is the inhibition rate (%).

OD450 [1]: 0.32 | OD450 [2]: 0.33 | Mean fluorescence intensity [3]: 462 | OD450 [4]: 2.78 | OD450 [5]: 0.14 | Inhibition ratio (%) [6]: 27.4%
B1: 18D2H2 fully human TIM-3 antibody (human IgG4, kappa) (antibody, V domains shown)
VH: EVQLVESGGDLVQPGGSLRLSCAASGFTFSTYWMTWVRQAPGRGLEWVANIKQDGSAKYYVDSVKGRFTLSRDDAKNSLYLQMNSLRAEDTAVYYCARGSNWFDYWGQGTLVTVSS
VL: ETVMTQSPATLSVSPGERATLSCRANQNVYSNLAWYQQKPGQAPRLLIYDASTRATGFPARFSGSGSGTEFTLTISSLQSEDFAVYYCQQYNNWPLTFGGGTKVEIK
